This assay deals with T1, human IL-2Rβ (CD122 protein, Fc Tag) (27-239) (human), P14784.
T1 chain: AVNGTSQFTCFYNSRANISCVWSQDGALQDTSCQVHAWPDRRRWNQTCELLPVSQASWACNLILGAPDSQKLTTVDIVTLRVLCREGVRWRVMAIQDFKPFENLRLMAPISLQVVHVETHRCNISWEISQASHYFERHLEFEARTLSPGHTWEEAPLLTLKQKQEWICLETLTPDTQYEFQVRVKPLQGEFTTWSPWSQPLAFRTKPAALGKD
Nature of the assay: competitive binding ELISA (Example 28).

Molecule CCYQAMVGDLCDFC (modifications not checked) [IL-2Rβ ligand SEQ ID NO: 83] had an IC50 of less than 10 µM.

(Values after patent US20220119492A1.)
